# Data as given in the supplement of paper PMC10567573.
# B1: HSP90AB1 (parent)
# chain: EADKNDKAVKDLVVLLFETALLSS
# Variants of: B1
# Experiment: protein stability index of a GFP-peptide fusion (GPS, HEK-293T) (PSI 1-6); higher = more stable
# Settings: c terminus: a fixed tail appended
# 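Also: lentivirally expressed fusions sorted by FACS into six bins by GFP to DsRed ratio, PSI derived from sequencing read proportions per bin multiplied by bin number.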
row,Variant,protein stability index
1,EADKHDKAVKDLVVLLFETALLSS [N5H],1.68
2,EADKIDKAVKDLVVLLFETALLSS [N5I],1.9
3,EADKKDKAVKDLVVLLFETALLSS [N5K],2.35
4,EADKLDKAVKDLVVLLFETALLSS [N5L],1.99
5,EADKMDKAVKDLVVLLFETALLSS [N5M],2.27
6,EADKPDKAVKDLVVLLFETALLSS [N5P],1.59
7,EADKQDKAVKDLVVLLFETALLSS [N5Q],1.8
8,EADKRDKAVKDLVVLLFETALLSS [N5R],1.63
9,EADKSDKAVKDLVVLLFETALLSS [N5S],2
10,EADKTDKAVKDLVVLLFETALLSS [N5T],2.43
11,EADKVDKAVKDLVVLLFETALLSS [N5V],1.93
12,EADKWDKAVKDLVVLLFETALLSS [N5W],2.28
13,EADKYDKAVKDLVVLLFETALLSS [N5Y],1.83
14,EADKNAKAVKDLVVLLFETALLSS [D6A],2.51
15,EADKNCKAVKDLVVLLFETALLSS [D6C],2.48
16,EADKNEKAVKDLVVLLFETALLSS [D6E],1.63
17,EADKNFKAVKDLVVLLFETALLSS [D6F],3.2
18,EADKNGKAVKDLVVLLFETALLSS [D6G],1.85
19,EADKNHKAVKDLVVLLFETALLSS [D6H],2.6
20,EADKNIKAVKDLVVLLFETALLSS [D6I],3.48
21,EADKNKKAVKDLVVLLFETALLSS [D6K],1.28
22,EADKNLKAVKDLVVLLFETALLSS [D6L],2.27
23,EADKNMKAVKDLVVLLFETALLSS [D6M],2.64
24,EADKNNKAVKDLVVLLFETALLSS [D6N],1.9

row,Variant,protein stability index
1,EADKNQKAVKDLVVLLFETALLSS [D6Q],2.2
2,EADKNRKAVKDLVVLLFETALLSS [D6R],1.73
3,EADKNTKAVKDLVVLLFETALLSS [D6T],1.42
4,EADKNVKAVKDLVVLLFETALLSS [D6V],1.9
5,EADKNWKAVKDLVVLLFETALLSS [D6W],1.69
6,EADKNYKAVKDLVVLLFETALLSS [D6Y],1.69
7,EADKNDAAVKDLVVLLFETALLSS [K7A],1.95
8,EADKNDCAVKDLVVLLFETALLSS [K7C],1.44
9,EADKNDDAVKDLVVLLFETALLSS [K7D],2
10,EADKNDFAVKDLVVLLFETALLSS [K7F],2.32
11,EADKNDGAVKDLVVLLFETALLSS [K7G],2.17
12,EADKNDHAVKDLVVLLFETALLSS [K7H],2
13,EADKNDIAVKDLVVLLFETALLSS [K7I],2.77
14,EADKNDLAVKDLVVLLFETALLSS [K7L],2.47
15,EADKNDMAVKDLVVLLFETALLSS [K7M],2.47
16,EADKNDNAVKDLVVLLFETALLSS [K7N],1.95
17,EADKNDPAVKDLVVLLFETALLSS [K7P],2.24
18,EADKNDQAVKDLVVLLFETALLSS [K7Q],1.67
19,EADKNDRAVKDLVVLLFETALLSS [K7R],2.02
20,EADKNDSAVKDLVVLLFETALLSS [K7S],1.92
21,EADKNDTAVKDLVVLLFETALLSS [K7T],1.84
22,EADKNDWAVKDLVVLLFETALLSS [K7W],3.3
23,EADKNDYAVKDLVVLLFETALLSS [K7Y],2.79
24,EADKNDKCVKDLVVLLFETALLSS [A8C],2.56

row,Variant,protein stability index
1,EADKNDKDVKDLVVLLFETALLSS [A8D],2.44
2,EADKNDKEVKDLVVLLFETALLSS [A8E],2.12
3,EADKNDKFVKDLVVLLFETALLSS [A8F],2.18
4,EADKNDKGVKDLVVLLFETALLSS [A8G],1.97
5,EADKNDKHVKDLVVLLFETALLSS [A8H],2.62
6,EADKNDKIVKDLVVLLFETALLSS [A8I],1.55
7,EADKNDKKVKDLVVLLFETALLSS [A8K],1.94
8,EADKNDKLVKDLVVLLFETALLSS [A8L],2.43
9,EADKNDKMVKDLVVLLFETALLSS [A8M],2.62
10,EADKNDKNVKDLVVLLFETALLSS [A8N],2.2
11,EADKNDKPVKDLVVLLFETALLSS [A8P],2.01
12,EADKNDKRVKDLVVLLFETALLSS [A8R],2.19
13,EADKNDKSVKDLVVLLFETALLSS [A8S],2.22
14,EADKNDKTVKDLVVLLFETALLSS [A8T],1.87
15,EADKNDKVVKDLVVLLFETALLSS [A8V],1.63
16,EADKNDKWVKDLVVLLFETALLSS [A8W],2.07
17,EADKNDKAAKDLVVLLFETALLSS [V9A],1.97
18,EADKNDKACKDLVVLLFETALLSS [V9C],1.81
19,EADKNDKADKDLVVLLFETALLSS [V9D],2.44
20,EADKNDKAEKDLVVLLFETALLSS [V9E],3.07
21,EADKNDKAFKDLVVLLFETALLSS [V9F],2.17
22,EADKNDKAHKDLVVLLFETALLSS [V9H],3
23,EADKNDKAIKDLVVLLFETALLSS [V9I],1.84
24,EADKNDKAKKDLVVLLFETALLSS [V9K],2.15

row,Variant,protein stability index
1,EADKNDKALKDLVVLLFETALLSS [V9L],2.42
2,EADKNDKAMKDLVVLLFETALLSS [V9M],1.8
3,EADKNDKAPKDLVVLLFETALLSS [V9P],2.81
4,EADKNDKAQKDLVVLLFETALLSS [V9Q],1.7
5,EADKNDKARKDLVVLLFETALLSS [V9R],1.95
6,EADKNDKASKDLVVLLFETALLSS [V9S],2.1
7,EADKNDKATKDLVVLLFETALLSS [V9T],2.49
8,EADKNDKAWKDLVVLLFETALLSS [V9W],1.7
9,EADKNDKAYKDLVVLLFETALLSS [V9Y],2.16
10,EADKNDKAVADLVVLLFETALLSS [K10A],1.82
11,EADKNDKAVCDLVVLLFETALLSS [K10C],1.96
12,EADKNDKAVDDLVVLLFETALLSS [K10D],2.42
13,EADKNDKAVEDLVVLLFETALLSS [K10E],2.18
14,EADKNDKAVFDLVVLLFETALLSS [K10F],2.22
15,EADKNDKAVGDLVVLLFETALLSS [K10G],1.86
16,EADKNDKAVHDLVVLLFETALLSS [K10H],2.38
17,EADKNDKAVIDLVVLLFETALLSS [K10I],1.96
18,EADKNDKAVLDLVVLLFETALLSS [K10L],1.82
19,EADKNDKAVMDLVVLLFETALLSS [K10M],1.83
20,EADKNDKAVNDLVVLLFETALLSS [K10N],2.01
21,EADKNDKAVPDLVVLLFETALLSS [K10P],1.49
22,EADKNDKAVQDLVVLLFETALLSS [K10Q],2.19
